Tested on: MS2 coat protein
Test: apparent KD of MS2 coat protein; designed switch direction (-1 OFF switch, 1 ON switch): -1; higher = weaker reporter binding
Summary of the method: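 The reported apparent KD is a per-design median over clusters, from curve fits of normalised cluster fluorescence. Protein titrations used SNAP-549-labelled MS2 coat protein, doubled from 0.7 or 1.5 nM to 3 µM, in Tris-HCl pH 7.5 buffer with KCl, MgCl2, BSA, DTT, tRNA and Tween-20, with no input, 200 uM small-molecule ligand, or an oligonucleotide input. The RNA switches were transcribed on Illumina chips by stalled E. coli RNA polymerase.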

[1] = input ligand: microRNA oligo, concentration not stated
[2] = Eterna round: R95, input ligand: microRNA oligo, concentration not stated
[3] = Eterna round: R95, input ligand: FMN 200 uM
[4] = Eterna round: R95, input ligand: none

For “AGUCGAAAGACCAACAUGGACAUGAGGAUCACCCAUGUACAAGCCUUUUGCUCGUCACUAUCGUCAAAAGACGAUAG [Omei Mir Offv1 A1] (Eterna round: R97, puzzle: Sensor, turn-off variant 1)”, the “apparent KD of MS2 coat protein” value (input ligand: FMN 200 uM) was 34.5 nM and the “apparent KD of MS2 coat protein” value (input ligand: none) was 32.8 nM.

In the case of “UGAUCAGACCGAGGAUAUACAUGUAGGACGCACGUGAGUGCGUCCAUUACAUGAGGAUCACCCAUGUAGAAGGCGGUCUGAUCU [JL ENG2 1.93] (Eterna round: R96, puzzle: Exclusion NG 2)”, the “apparent KD of MS2 coat protein” value (input ligand: FMN 200 uM) was 331 nM, the “apparent KD of MS2 coat protein” value [1] was 133 nM and the “apparent KD of MS2 coat protein” value (input ligand: none) was 157 nM.

For “UUUUAACAUGAGGAUCACCCAUGUGAGGAUAUCGAAAUUUAUAUUAAUAUUUAUAUUACGAGAAGGCACAUUUU [JMF 58] (Eterna round: R96, puzzle: Exclusion 1)”, the “apparent KD of MS2 coat protein” value (input ligand: FMN 200 uM) was 103 nM, the “apparent KD of MS2 coat protein” value [1] was 55.3 nM and the “apparent KD of MS2 coat protein” value (input ligand: none) was 62.9 nM.

“AGUAACAGAGGAUAUACUGUUUUAUGUGUUUGUUGUUUUAAACAUGAGGAUCACCCAUGUAGAAGGCUGAAUAA [JMF 87] (puzzle: Exclusion 2)” was tested, and the “apparent KD of MS2 coat protein” value [2] was 18.8 nM.

With “AGCCUAGCAGGAUAUGCCCGGGAUAACAUGAGGAUCACCCAUGUGACUGAUUGAUGUCUUGCAGAAGGGCUAGGGA [JL-EX5-4.03 ViennaUCT mod] (Eterna round: R97, puzzle: Exclusion 5)” the “apparent KD of MS2 coat protein” value (input ligand: FMN 200 uM) was 211 nM and the “apparent KD of MS2 coat protein” value (input ligand: none) was 26.1 nM.

In the case of “AGCUGUGAGUGAGGAUAUCUGCUGUUGUCAGUCGGAGAAGGCGCGGACAGAACAUGAGGAUCACCCAUGUGUAUGGGCGGCCUC [Usatia] (Eterna round: R96, puzzle: Exclusion NG 1)”, the “apparent KD of MS2 coat protein” value (input ligand: FMN 200 uM) was 217 nM, the “apparent KD of MS2 coat protein” value [1] was 43.6 nM and the “apparent KD of MS2 coat protein” value (input ligand: none) was 85.5 nM.

“AAUAUUUUAGGAUAUGGCGGAAUAGACAUGAGGAUCACCCAUGUUAGAGGCGUGGUGAAGUUAGAAGGGAGGUGUU [Eternabot (L1) Solution 6] (Eterna round: R97, puzzle: Exclusion 5)” was tested, and the “apparent KD of MS2 coat protein” value (input ligand: FMN 200 uM) was 60 nM and the “apparent KD of MS2 coat protein” value (input ligand: none) was 113 nM.

In the case of “UUUUAACAUGAGGAUCACCCAUGUGAGGAUAUCGAAAUUUAUAUUUAUAUUUAUUAAACGAGAAGGCACAUUUU [JMF 99] (puzzle: Exclusion 1)”, the “apparent KD of MS2 coat protein” value [2] was 66.9 nM.

In the case of “UGGUCACAUGAGGAUCACCCAUGUCAGGAUAUCUACAUUGAAGCUUCGGCUUCAAUGUAGAGAAGGGAUAUAAU [E1/9-B1] (Eterna round: R97, puzzle: Exclusion 1)”, the “apparent KD of MS2 coat protein” value (input ligand: FMN 200 uM) was 167 nM and the “apparent KD of MS2 coat protein” value (input ligand: none) was 71.4 nM.

For “AGAAAUGCCCAUGGCCACAAGCUUCUUGCUUGUCUUACUACAUGAGGAUCACCCAUGUAACAUGGGCUCCUGAUAAU [Maonesra] (puzzle: Sensor v3, turn-off variant 2)”, the “apparent KD of MS2 coat protein” value [3] was 11.8 nM, the “apparent KD of MS2 coat protein” value [2] was 10.1 nM and the “apparent KD of MS2 coat protein” value [4] was 11.1 nM.

“UACAAGCUUUAAAGAUCCUACAUGAGGAUCACCCAUGUGCUCGUCUUAUAACGUACUGUGACGAAAGUCACGGUACG [JL TOV1 3.20] (Eterna round: R97, puzzle: Sensor, turn-off variant 1)” was tested, and the “apparent KD of MS2 coat protein” value (input ligand: FMN 200 uM) was 200 nM and the “apparent KD of MS2 coat protein” value (input ligand: none) was 246 nM.

“CCAGAAUGUGUCAGGAUAUCGGGUACCAAUAGCUUCGAGAAGGGACAUGAGGAUCACCCAUGUUCUCGGAGAGA [Eternabot (L2) Solution 76] (Eterna round: R97, puzzle: Brourd's mod of Exclusion 4)” was tested, and the “apparent KD of MS2 coat protein” value (input ligand: FMN 200 uM) was 20.5 nM and the “apparent KD of MS2 coat protein” value (input ligand: none) was 18 nM.

For “AAGGUGGCAGGAUAUACAUGAGGAUCACCCAUGUGAACGUAAGGAGACUCUCUCAAAGGUAGAAGGGUCGGUUC [Eternabot (L2) Solution 1] (Eterna round: R97, puzzle: Exclusion 3)”, the “apparent KD of MS2 coat protein” value (input ligand: FMN 200 uM) was 56.3 nM and the “apparent KD of MS2 coat protein” value (input ligand: none) was 121 nM.

In the case of “UUUUGCAAGCAAAUUGUCAACAUGAGGAUCACCCAUGUGGAAGCCUUGGAGGGUGGGACCGUAAGUAGAGCUCGUUU [Eternabot (L2) Solution 34] (Eterna round: R97, puzzle: Sensor, turn-off variant 1)”, the “apparent KD of MS2 coat protein” value (input ligand: FMN 200 uM) was 38.1 nM and the “apparent KD of MS2 coat protein” value (input ligand: none) was 39.2 nM.

“CAGAAGGGAGGAUAUACAUGACCGUUUUAAUGGUUUUUAGUACAUGAGGAUCACCCAUGUAGAAGGCCCGAACU [EX2 B.23] (Eterna round: R97, puzzle: Exclusion 2)” was tested, and the “apparent KD of MS2 coat protein” value (input ligand: FMN 200 uM) was 51 nM and the “apparent KD of MS2 coat protein” value (input ligand: none) was 21.8 nM.

For “GAGUACUGAGGAUAUACAUGAGGAUCACCCAUGUGUUCCAACUAGGAAUCUAGAAUGUGUAGAAGGCAGUGCUG [salish99_ex3_r4_703] (Eterna round: R97, puzzle: Exclusion 3)”, the “apparent KD of MS2 coat protein” value (input ligand: FMN 200 uM) was 298 nM and the “apparent KD of MS2 coat protein” value (input ligand: none) was 262 nM.

“AAGCGCGUAGGAUAUACAUGAGGAUCACCCAUGUGAGGAAGGAGUAGGAAGUGUGGAAGUAGAAGGACGGAGAG [JR_Exclu3_Sub077] (puzzle: Exclusion 3)” was tested, and the “apparent KD of MS2 coat protein” value [3] was 34.4 nM, the “apparent KD of MS2 coat protein” value [2] was 31.1 nM and the “apparent KD of MS2 coat protein” value [4] was 37.4 nM.
